{"source": "patent US20110239327A1", "about": "“Nematicidal Effects of Cysteine Proteinases and Methods of Use Thereof to Treat Nematode Infestation” (priority 2007, published 2011)", "key": {"[1]": {"system": "Meloidogyne spp. J2s", "test": "In vitro mobility of Meloidogyne spp. J2s exposed to plant cysteine proteinases", "type": "cell-based, M. incognita or M. javanica", "method": "Eggs of M. incognita race 1 from North Carolina State University, USA, and M. javanica from Portugal were collected from the roots of infected tomato plants grown in a glasshouse at 23° C. in a 16:8 h light-dark regime. Eggs were extracted using 1% hypochlorite (NaClO) solution (Hussey and Barker, 1973) or by picking egg masses from the infected roots. M. incognita and M. javanica were both used in the experiments and produced similar results. Juveniles (J2) were hatched from the eggs and egg masses in water. Globodera rostochiensis cysts were washed extensively in distilled water. Hatched J2s were obtained by incubating cysts in distilled water for 4 days followed by exposure to potato root diffusate (PRD).\nApproximately 1000 J2s (second juvenile stage) of M. incognita or M. javanica were incubated per well of a 48-well plate with the following active enzyme concentrations (determined by E-64 titration) of papain dissolved in distilled water containing 16 mM L-cysteine (to activate the cysteine proteinase): 1.5 μM, 3 μM, 6.25 μM, 12.5 μM, 25 μM, 50 μM, 75 μM and 100 μM. Control wells contained J2s and distilled water with and without 16 mM L-cysteine, or J2s and 1 mM E-64, with and without 50 μM (active enzyme) papain, which had been preincubated for 25 mins at 40° C. Each enzyme concentration and the controls were set up in duplicate (n=2) or triplicate (n=3). The number of active J2s per well was counted prior to the addition of papain, and then the J2s were incubated in the dark at room temperature for 3 h. The number of mobile J2s per well was counted after 60, 120 and 180 mins. The nematode surfaces were examined for signs of damage using a light microscope (Zeiss Axioskop) at ×20, ×40 and ×100 magnification and photographs were taken with a Xillix Microimager. The same procedure was followed when setting up further experiments to compare the effects of 25 μM papain, 25 μM crude papaya latex (0.625 g/ml), 25 μM stem bromelain (0.18 g/ml) and 25 μM actinidin (active enzyme concentrations) with M. incognita, M. javanica or G. rostochiensis.\nThe data from the in vitro motility experiments were analysed using a repeated measures analysis of variance (as implemented in the GenStat procedure AREPMEASUREMENTS) to compare the overall treatment means, the overall means at each sample time, and the treatment by time interaction. Numbers of nematodes moving at each of the repeated sampling times, 60, 120 and 180 mins, were expressed as a proportion of those moving initially at time 0 (i.e. this latter number was assumed to be the actual number of nematodes initially in the dish). The proportions were transformed to logits prior to analysis. […]"}, "[2]": {"system": "adult females of M. incognita", "test": "Light microscopy of Meloidogyne adult female worms incubated with papain", "type": "cell-based", "set-up": "digestion of the cuticle of adult females: dose or concentration left out as unconfirmed", "method": "To assess whether these enzymes also affected the cuticles of other stages of the nematodes, five adult females of M. […], prepared in 16 mM L-cysteine dissolved in phosphate buffered saline (PBS), pH 7.4, or PBS, pH 7.4 with and without 16 mM L-cysteine. These nematodes were incubated in the dark at ambient temperature for 4 h and were then examined using a light microscope at ×10 and ×20 magnification to observe any differences to the nematode body wall."}, "[3]": {"system": "M. incognita J2", "test": "In vitro live/dead count of M. incognita J2 in solution without soil (Example 2)", "type": "cell-based", "conditions": "after 40 hs of observation, at the nematicidal concentration", "method": "Eggs of M. incognita race 1 from North Carolina State University, USA were collected from tomato-infected roots grown in a glasshouse at 23° C. in a 16:8 h light-dark regime. Eggs were extracted using 1% hypochlorite (NaClO) solution (Hussey and Barker, 1973) or by picking egg masses from tomato-infected roots. Juveniles (J2) were hatched from the eggs and egg masses in water. Heterodera glycines eggs were obtained from soil samples stored in Rothamsted-Research. Second stage juveniles (J2) were hatched from the eggs in water after 10 days. Pratylenchus penetrans were a gift from Dr. Deeren Anne-Marie from the Institute for Agricultural and Fisheries Research, Merelbeke, Belgium. The beneficial nematodes Steinernema feltiae and Heterorhabditis megidis were a gift from Dr. Paul Williams from Becker Underwood. […]\nControl wells were set up which contained J2s and distilled water with 16 mM L-cysteine. […] The actual number of active J2s per well was counted with the aid of an Olympus inverted microscope, prior to the addition of the enzymes, and then the J2s were incubated in the dark at room temperature for 2 hs, 16 hs, 24 hs or 40 hr. The number of live and dead J2s per well was counted after each enzyme incubation. […]"}}, "note": "Entries after “also recorded” stand apart in the source; their conditions may differ."}
{"molecule": "papain (protein, UniProt P00784 134-345, looked up, cysteine proteinase from Carica papaya, Merops C01.001, Sigma P3125) Papain: IPEYVDWRQKGAVTPVKNQGSCGSCWAFSAVVTIEGIIKIRTGNLNEYSEQELLDCDRRSYGCNGGYPWSALQLVAQYGIHYRNTYPYEGVQRYCRSREKGPYAAKTDGVRQVQPYNEGALLYSIANQPVSVVLEAAGKDFQLYRGGIFVGPCGNKVDHAVAAVGYGPNYILIKNSWGTGWGENGYIRIKRGTGNSYGVCGLYTSSFYPVKN", "values": [{"measurement": "proportion of active Meloidogyne spp. J2s relative to control", "setting": "[1]; 25 μM active enzyme", "value": "Reductions in the proportion of active worms were evident"}, {"measurement": "nematodes mobile after 180 mins", "setting": "[1]; 50 μM active papain, with or without pre-incubation with 1 mM E-64", "value": "None"}, {"measurement": "mobility (proportion of mobile J2s) of Meloidogyne spp. J2s", "setting": "[1]; papain 1.5-100 μM active enzyme, all doses combined, 60-180 mins, vs combined controls", "value": "decreased the mobility; also recorded: decreased linearly"}, {"measurement": "activity of Meloidogyne J2s relative to combined controls", "setting": "[1]; papain at active enzyme concentrations of 1.5 μM and 3 μM", "value": "caused reductions in the activity"}, {"measurement": "digestion of the cuticle of adult females (light micrographs)", "setting": "[2]; 25 μM active papain, 4 h", "value": "Digestion of the cuticle was evident"}, {"measurement": "digestion of the cuticle of adult females", "setting": "[2]; active papain", "value": "digestion of the cuticle was evident"}, {"measurement": "recovery of movement", "setting": "[3]", "value": "not able to recover movement"}]}
